What all share (details): both partners purified
Assay [1] deals with T1, Human Aβ(1–42)-HiLyte^TM-Fluor555 (human, UniProt P05067 672-713, HiLyte^TM-Fluor555 dye covalently bound to ASP1 (NH2-terminus amino acid)).
T1 construct: Amyloid β peptide Aβ(1–42), human, cut product of the amyloid precursor protein; numbers count on: the Aβ peptide; source: bought: AnaSpec
The assay can be described thus: other fluorescence titration; His6 added to 10 nM Aβ(1–42) HiLyte-Fluor555 in solution; increase in dye fluorescence (ex 520 nm, em 567 nm) at the end of the kinetics (2000 s); 50 mM HEPES, 100 mM KCl, 50 µM CaCl2, pH 7.05, 24–25 °C.

The target of assay [2] is T1, Human Aβ(1–42)-HiLyte^TM-Fluor555. Kind of assay: other fluorescence titration; competition: 10 nM Aβ(1–42) HiLyte-Fluor555 preincubated 15 min with rising His6, then 5 nM calbindin-D28k added; attenuation of the maximum fluorescence increase; 50 mM HEPES, 100 mM KCl, 50 µM CaCl2, pH 7.05, 24–25 °C.
Assay [3] shares this target. Kind of assay: other fluorescence titration; competition: 10 nM Aβ(1–42) HiLyte-Fluor555 preincubated 15 min with rising His6, then 5 nM CaM added; attenuation of the maximum fluorescence increase; 50 mM HEPES, 100 mM KCl, 50 µM CaCl2, pH 7.05, 24–25 °C.

B1: hexa-histidine peptide (His6) (peptide)
peptide: HHHHHH
notes: hexa-histidine; source: bought: Quimigen
In turn, B1 displayed an EC50 in assay [1] of 50 to 60 nM. For the same molecule, the values for the IC50 in assay [2] and in assay [3] were roughly 100 nM and roughly 1000 nM, respectively.

By EC50 is commonly meant the concentration giving half of the maximal effect. By IC50 is commonly meant the concentration at which inhibition is half-maximal. Read a high IC50 as a need for much substance.

The record behind these values is article PMC10609148 (Molecules, 2023).
